From patent publication US20230272119A1 (MARENGO THERAPEUTICS, published 2023)
Each block holds one binder with its values, some of them ahead of it.

Experiments:
[1] = target: T1, α-CCR2 heavy-LgBiT (SEQ ID NO: 155); test: NanoBiT, HC-LgBiT:LC-SmBiT:competing LC 1:1:1; competing kappa LC m24 (SEQ ID NO: 115)
T1 construct: VH-CH1-linker-LgBiT; germline VH1-2*01

[2] = target: T1, α-CCR2 heavy-LgBiT (SEQ ID NO: 155); test: NanoBiT, HC-LgBiT:LC-SmBiT:competing LC 1:1:1; competing kappa LC m33 (SEQ ID NO: 124)
[3] = target: T1, α-CCR2 heavy-LgBiT (SEQ ID NO: 155); test: NanoBiT, HC-LgBiT:LC-SmBiT:competing LC 1:1:1; competing kappa LC m42 (SEQ ID NO: 133)
[4] = target: T1, α-CCR2 heavy-LgBiT (SEQ ID NO: 155); test: NanoBiT, HC-LgBiT:LC-SmBiT:competing LC 1:1:1; competing kappa LC m36 (SEQ ID NO: 127)
[5] = target: T2, α-HER3 heavy-LgBiT (SEQ ID NO: 143); test: NanoBiT, HC-LgBiT:LC-SmBiT:competing LC 1:1:1; competing kappa LC m6 (SEQ ID NO: 97)
T2 construct: VH-CH1-linker-LgBiT; germline VH3-9*01

[6] = target: T2, α-HER3 heavy-LgBiT (SEQ ID NO: 143); test: NanoBiT, HC-LgBiT:LC-SmBiT:competing LC 1:1:1; competing kappa LC m12 (SEQ ID NO: 103)
[7] = target: T2, α-HER3 heavy-LgBiT (SEQ ID NO: 143); test: NanoBiT, HC-LgBiT:LC-SmBiT:competing LC 1:1:1; competing kappa LC m24 (SEQ ID NO: 115)
[8] = target: T2, α-HER3 heavy-LgBiT (SEQ ID NO: 143); test: NanoBiT, HC-LgBiT:LC-SmBiT:competing LC 1:1:1; competing kappa LC m33 (SEQ ID NO: 124)
[9] = target: T2, α-HER3 heavy-LgBiT (SEQ ID NO: 143); test: NanoBiT, HC-LgBiT:LC-SmBiT:competing LC 1:1:1; competing kappa LC m21 (SEQ ID NO: 112)
[10] = target: T2, α-HER3 heavy-LgBiT (SEQ ID NO: 143); test: NanoBiT, HC-LgBiT:LC-SmBiT:competing LC 1:1:1; competing kappa LC m42 (SEQ ID NO: 133)
[11] = target: T2, α-HER3 heavy-LgBiT (SEQ ID NO: 143); test: NanoBiT, HC-LgBiT:LC-SmBiT:competing LC 1:1:1; competing kappa LC m36 (SEQ ID NO: 127)
[12] = target: T2, α-HER3 heavy-LgBiT (SEQ ID NO: 143); test: NanoBiT, HC-LgBiT:LC-SmBiT:competing LC 1:1:1; competing kappa LC m27 (SEQ ID NO: 118)
[13] = target: T2, α-HER3 heavy-LgBiT (SEQ ID NO: 143); test: NanoBiT, HC-LgBiT:LC-SmBiT:competing LC 1:1:1; competing kappa LC m15 (SEQ ID NO: 106)
[14] = target: T3, α-IL12β heavy-hCHIg_Hole_Cys (SEQ ID NO: 170) (Homo sapiens (Human), UniProt P0DOX5 1-449 = IgG part); test: intact MS of papain-cleaved multispecific molecule 3; Fab of this pairing observed (observed mass, Da)
T3 construct: full heavy chain, human Fc hole; Fab analysed after papain cleavage in the MS assay; germline VH3-33*01; also called HCP1 of multispecific molecules 3 and 9

[15] = target: T4, α-CTLA4 heavy-hCHIg_Knob_Cys (SEQ ID NO: 168) (Homo sapiens (Human), UniProt P0DOX5 1-449 = IgG part); test: intact MS of papain-cleaved multispecific molecule 3; Fab 'Kappa heavy chain/lambda light chain' not observed
T4 construct: full heavy chain, human Fc knob; Fab analysed after papain cleavage in the MS assay; germline VH3-30*01; also called HCP2 of multispecific molecules 3, 4, 5, 9

[16] = target: T5, α-CCR2 heavy-LgBiT (SEQ ID NO: 158); test: NanoBiT, HC-LgBiT:LC-SmBiT:competing LC 1:1:1; competing kappa LC m6 (SEQ ID NO: 97)
T5 construct: VH-CH1-linker-LgBiT; germline VH3-7*01

[17] = target: T5, α-CCR2 heavy-LgBiT (SEQ ID NO: 158); test: NanoBiT, HC-LgBiT:LC-SmBiT:competing LC 1:1:1; competing kappa LC m12 (SEQ ID NO: 103)
[18] = target: T5, α-CCR2 heavy-LgBiT (SEQ ID NO: 158); test: NanoBiT, HC-LgBiT:LC-SmBiT:competing LC 1:1:1; competing kappa LC m24 (SEQ ID NO: 115)
[19] = target: T5, α-CCR2 heavy-LgBiT (SEQ ID NO: 158); test: NanoBiT, HC-LgBiT:LC-SmBiT:competing LC 1:1:1; competing kappa LC m42 (SEQ ID NO: 133)
[20] = target: T5, α-CCR2 heavy-LgBiT (SEQ ID NO: 158); test: NanoBiT, HC-LgBiT:LC-SmBiT:competing LC 1:1:1; competing kappa LC m18 (SEQ ID NO: 109)
[21] = target: T5, α-CCR2 heavy-LgBiT (SEQ ID NO: 158); test: NanoBiT, HC-LgBiT:LC-SmBiT:competing LC 1:1:1; competing kappa LC m15 (SEQ ID NO: 106)
[22] = target: T5, α-CCR2 heavy-LgBiT (SEQ ID NO: 158); test: NanoBiT, HC-LgBiT:LC-SmBiT:competing LC 1:1:1; competing kappa LC m9 (SEQ ID NO: 100)
[23] = target: T6, α-complement C5 heavy-LgBiT (SEQ ID NO: 152); test: NanoBiT, HC-LgBiT:LC-SmBiT:competing LC 1:1:1; competing kappa LC m42 (SEQ ID NO: 133)
T6 construct: VH-CH1-linker-LgBiT; germline VH1-69*01

B1: α-CCR2 light-SmBiT (SEQ ID NO: 156) (other)
light: LPVLTQPPSVSKGLRQTATLTCTGNSNNVGNQGAAWLQQHQGQPPKLLSYRNHNRPSGVSERFSPSRSGDTSSLTITGLQPEDEADYYCLAWDSSLRAFVFGTGTKLTVLGQPKANPTVTLFPPSSEELQANKATLVCLISDFYPGAVTVAWKADGSPVKAGVETTKPSKQSNNKYAASSYLSLTPEQWKSHRSYSCQVTHEGSTVEKTVAPTECSGSSGGGGSGGGGSSGGVTGYRLFEEIL
notes: lambda light chain-linker-SmBiT; germline Vl10-54*01
Percent pairing [1]: 90% | Percent pairing [2]: 80% | Percent pairing [3]: 100% | Percent pairing [4]: 77%

B2: α-HER3 light-SmBiT (SEQ ID NO: 144) (other)
light: SYELTQDPAVSVALGQTVRITCQGDSLRSYYASWYQQKPGQAPVLVIYGKNNRPSGIPDRFSGSTSGNSASLTITGAQAEDEADYYCNSRDSPGNQWVFGGGTKVTVLGGQPKANPTVTLFPPSSEELQANKATLVCLISDFYPGAVTVAWKADGSPVKAGVETTKPSKQSNNKYAASSYLSLTPEQWKSHRSYSCQVTHEGSTVEKTVAPTECSGSSGGGGSGGGGSSGGVTGYRLFEEIL
notes: lambda light chain-linker-SmBiT; germline Vl3-19*01
Percent pairing [5]: 100% | Percent pairing [6]: 80% | Percent pairing [7]: 86% | Percent pairing [8]: 100% | Percent pairing [9]: 100% | Percent pairing [10]: 100% | Percent pairing [11]: 100% | Percent pairing [12]: 90% | Percent pairing [13]: 93%

binding result [14]: binds | binding result [15]: no binding
B3: α-IL12β light (SEQ ID NO: 163) (other)
light: QSVLTQPPSVSGAPGQRVTISCSGSRSNIGSNTVKWYQQLPGTAPKLLIYYNDQRPSGVPDRFSGSKSGTSASLAITGLQAEDEADYYCQSYDRYTHPALLFGTGTKVTVLGQPKANPTVTLFPPSSEELQANKATLVCLISDFYPGAVTVAWKADGSPVKAGVETTKPSKQSNNKYAASSYLSLTPEQWKSHRSYSCQVTHEGSTVEKTVAPTECS
notes: unmodified lambda light chain; germline Vl1-44*01; also called LLCP of multispecific molecule 3

B4: α-CCR2 light-SmBiT (SEQ ID NO: 159) (other)
light: QAGLTQPPSVSKGLRQTATLTCTGNSNNVGNQGAAWLQQHQGHPPKLLFYRNNNRASGISERLSASRSGNTASLTITGLQPEDEADYYCLTWDSSLSVVVFGGGTKLTVLGQPKANPTVTLFPPSSEELQANKATLVCLISDFYPGAVTVAWKADGSPVKAGVETTKPSKQSNNKYAASSYLSLTPEQWKSHRSYSCQVTHEGSTVEKTVAPTECSGSSGGGGSGGGGSSGGVTGYRLFEEIL
notes: as for B1
Percent pairing [16]: 89% | Percent pairing [17]: 100% | Percent pairing [18]: 97% | Percent pairing [19]: 99% | Percent pairing [20]: 95% | Percent pairing [21]: 98% | Percent pairing [22]: 99%

B5: α-complement C5 light-SmBiT (SEQ ID NO: 153) (other)
light: SYELTQPLSVSVALGQTARITCSGDSIPNYYVYWYQQKPGQAPVLVIYDDSNRPSGIPERFSGSNSGNTATLTISRAQAGDEADYYCQSFDSSLNAEVFGGGTKLTVLGQPKANPTVTLFPPSSEELQANKATLVCLISDFYPGAVTVAWKADGSPVKAGVETTKPSKQSNNKYAASSYLSLTPEQWKSHRSYSCQVTHEGSTVEKTVAPTECSGSSGGGGSGGGGSSGGVTGYRLFEEIL
notes: lambda light chain-linker-SmBiT; germline Vl3-9*01
Percent pairing [23]: 79%
